As usually defined, the Kd is the free concentration of one partner at which half of the binding sites on the other are occupied at equilibrium, for simple one-to-one binding. Read a low Kd as a tighter complex.

Experiment [1] concerns the target T1, human PVR (poliovirus receptor) (human, UniProt P15151 21-343).
T1 sequence (looked up): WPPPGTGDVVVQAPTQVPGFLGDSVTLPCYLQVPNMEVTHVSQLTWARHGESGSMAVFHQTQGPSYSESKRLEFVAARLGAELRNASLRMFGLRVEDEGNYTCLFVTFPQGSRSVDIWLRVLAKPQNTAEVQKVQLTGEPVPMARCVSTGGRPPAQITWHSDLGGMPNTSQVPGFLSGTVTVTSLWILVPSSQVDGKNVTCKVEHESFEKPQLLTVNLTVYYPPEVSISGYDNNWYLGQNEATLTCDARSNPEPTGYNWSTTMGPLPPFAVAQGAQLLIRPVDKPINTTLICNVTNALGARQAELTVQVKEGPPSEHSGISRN
Nature of the experiment: SPR. On the technique in general: SPR reads the build-up and loss of mass on a sensor chip optically.

The target of experiment [2] is T2, IgV domain of human nectin-2 (human, UniProt Q92692 32-158).
T2 sequence: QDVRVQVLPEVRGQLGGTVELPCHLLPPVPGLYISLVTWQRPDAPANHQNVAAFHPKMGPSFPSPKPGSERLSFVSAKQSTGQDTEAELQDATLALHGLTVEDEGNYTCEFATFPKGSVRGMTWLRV
The experiment in a line: SPR.

B1: IgV domain of human TIGIT (residues 22 to 137) (domain or fragment, UniProt Q495A1 22-137, looked up)
chain: MMTGTIETTGNISAEKGGSIILQCHLSSTTAQVTQVNWEQQDQLLAICNADLGWHISPSFKDRVAPGPGLGLTLQSLTVNDTGEYFCIYHTYPDGTYTGRIFLEVLESSVAEHGAR
Turning to B1, the values for the dissociation constant Kd in experiment [1] and in experiment [2] were 0.36 ± 0.025 µM and 11.5 ± 1.1 µM, respectively.

The values are drawn from PMC5220579 (Molecular immunology, 2016).
